# B1: His-tagged Arl4A T51N [not stated] / GST-VPS36 (201–386) [not stated] (parent complex)
# chain 1: MGNGLSDQTSILSNLPSFQSFHIVILGLDCAGKTTVLYRLQFNEFVNTVPNKGFNTEKIKVTLGNSKTVTFHFWDVGGQEKLRPLWKSYTRCTDGIVFVVDSVDVERMEEAKTELHKITRISENQGVPVLIVANKQDLRNSLSLSEIEKLLAMGELSSSTPWHLQPTCAIIGDGLKEGLEKLHDMIIKRRKMLRQQKKKR
# chain 2: KIKDKQGDITEDETIRFKSYLLSMGIANPVTRETYGSGTQYHMQLAKQLAGILQVPLEERGGIMSLTEVYCLVNRARGMELLSPEDLVNACKMLEALKLPLRLRVFDSGVMVIELQSHKEEEMVASALETVSEKGSLTSEEFAKLVGMSVLLAKERLLLAEKMGHLCRDDSVEGLRFYPNLFMTQS
# B2: untagged Arl4A T51N (pSG5) [not stated] / VPS36-WT-Myc [not stated] (parent complex)
# chain 1: B1 chain 1
# chain 2: MDRFVWTSGLLEINETLVIQQRGVRIYDGEEKIKFDAGTLLLSTHRLIWRDQKNHECCMAILLSQIVFIEEQAAGIGKSAKIVVHLHPAPPNKEPGPFQSSKNSYIKLSFKEHGQIEFYRRLSEEMTQRRWENMPVSQSLQTNRGPQPGRIRAVGIVGIERKLEEKRKETDKNISEAFEDLSKLMIKAKEMVELSKSIANKIKDKQGDITEDETIRFKSYLLSMGIANPVTRETYGSGTQYHMQLAKQLAGILQVPLEERGGIMSLTEVYCLVNRARGMELLSPEDLVNACKMLEALKLPLRLRVFDSGVMVIELQSHKEEEMVASALETVSEKGSLTSEEFAKLVGMSVLLAKERLLLAEKMGHLCRDDSVEGLRFYPNLFMTQS
# Variants of: B1
# Experiment: GST pull-down with densitometric quantification; parent: 1; read off a plot
row,ratio to parent,Variant
1,~0.09,"chain 2 KIKDKQGDITEDETIRFKSYLLSMGIANPVTRETYGSGTQYHMQLAKQLAGILQVPLEERGGIMSLTEVYCLVNRARGMELLSPEDLVNACKMLEALKLPLRLRVFDSGVMVIELQSHKEEEMVASALETVSEKGSLTSEEFAKLVGMSVLAAAAALLLAEKMGHLCRDDSVEGLRFYPNLFMTQS [chain 2 L152A, chain 2 K154A, chain 2 E155A, chain 2 R156A]"
2,~0.31,"chain 2 KIKDKQGDITEDETIRFKSYLLSMGIANPVTRETYGSGTQYHMQLAKQLAGILQVPLEERGGIMSLTEVYCLVNRARGMELLSPEDLVNACKMLEALKLPLRLRVFDSGVMVIELQSHKEEEMVASALETVSEKGSLTSEEAAAAAGMSVLLAKERLLLAEKMGHLCRDDSVEGLRFYPNLFMTQS [chain 2 F142A, chain 2 K144A, chain 2 L145A, chain 2 V146A]"
3,~0.22,"chain 2 KIKDKQGDITEDETIRFKSYLLSMGIANPVTRETYGSGTQYHMQLAKQLAGILQVPLEERGGIMSLTEVYCLVNRARGMELLSPEDLVNACKMLEALKLPLRLRVFDSGVMVIELQSHKEEEMVASALETVSEKGSAAAAAFAKLVGMSVLLAKERLLLAEKMGHLCRDDSVEGLRFYPNLFMTQS [chain 2 L137A, chain 2 T138A, chain 2 S139A, chain 2 E140A, chain 2 E141A]"

# Variants of: B2
# Experiment: co-immunoprecipitation (Myc-Trap) with densitometric quantification; HeLa cell lysates; parent: 1; read off a plot
row,ratio to parent,Variant
1,~0.54,"chain 2 MDRFVWTSGLLEINETLVIQQRGVRIYDGEEKIKFDAGTLLLSTHRLIWRDQKNHECCMAILLSQIVFIEEQAAGIGKSAKIVVHLHPAPPNKEPGPFQSSKNSYIKLSFKEHGQIEFYRRLSEEMTQRRWENMPVSQSLQTNRGPQPGRIRAVGIVGIERKLEEKRKETDKNISEAFEDLSKLMIKAKEMVELSKSIANKIKDKQGDITEDETIRFKSYLLSMGIANPVTRETYGSGTQYHMQLAKQLAGILQVPLEERGGIMSLTEVYCLVNRARGMELLSPEDLVNACKMLEALKLPLRLRVFDSGVMVIELQSHKEEEMVASALETVSEKGSLTSEEFAKLVGMSVLAAAAALLLAEKMGHLCRDDSVEGLRFYPNLFMTQS [chain 2 L352A, chain 2 K354A, chain 2 E355A, chain 2 R356A]"

# Source: article PMC10687025, “Endosomal Arl4A attenuates EGFR degradation by binding to the ESCRT-II component VPS36” (Nature Communications, 2023)
